For 3 molecules, Kd results are on record in paper PMC10213792 (Acta Pharmaceutica Sinica. B, 2023).

B1: His-tagged SepFc (N-terminal truncated version of SepF, amino acids 115-203) (domain or fragment)
chain: EMTRPRFGSWLRNSTRGALAMDPRRMAMMFEDGHPLSKITTLRPKDYSEARTIGERFRDGSPVIMDLVSMDNADAKRLVDFAAGLAFAL

In one experiment the target is SepF (Mycobacterium tuberculosis, UniProt P9WGJ5). The experiment can be described thus: SPR. It counts as binding.
In experiment [1] the target is B1. The experiment is described as follows: fluorescence polarisation. (Polarisation of emitted light reports the rotation of a fluorescent probe.)
In another experiment the target is T1, His-tagged FtsZ (M. tuberculosis H37Rv, UniProt P9WN95 1-379).
T1 sequence: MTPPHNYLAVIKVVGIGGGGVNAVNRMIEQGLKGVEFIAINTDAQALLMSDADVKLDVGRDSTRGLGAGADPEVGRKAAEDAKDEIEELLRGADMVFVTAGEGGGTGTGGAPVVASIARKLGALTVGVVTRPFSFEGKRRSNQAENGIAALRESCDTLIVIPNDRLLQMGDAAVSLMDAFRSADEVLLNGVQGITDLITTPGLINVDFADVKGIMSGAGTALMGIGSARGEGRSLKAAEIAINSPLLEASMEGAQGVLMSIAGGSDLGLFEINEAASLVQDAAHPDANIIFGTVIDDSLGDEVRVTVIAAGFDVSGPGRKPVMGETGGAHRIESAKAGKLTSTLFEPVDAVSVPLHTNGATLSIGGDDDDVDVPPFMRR
The experiment can be described thus: SPR. (In SPR one partner is held on a chip, and binding of the other changes the refractive index at the surface.)

The star is where a group is joined. FITC = O=C1OC2(c3ccc(O)cc3Oc3cc(O)ccc32)c2ccc(NC(=S)*)cc21

Sequence of SepF (P9WGJ5 115-203): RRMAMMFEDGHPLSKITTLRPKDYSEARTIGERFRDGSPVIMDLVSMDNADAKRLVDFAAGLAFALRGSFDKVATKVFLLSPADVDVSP

A word on the Kd: it is the equilibrium constant for the complex coming apart. High values mean a looser complex, low ones a tighter complex. For `OC(COc1ccc2ccccc2c1)CN1CCCN(CC(O)COc2ccc3ccccc3c2)CC1` (stereo not drawn) [T0349, 1-{4-[2-hydroxy-3-(naphthalen-2-yloxy)propyl]-1,4-diazepan-1-yl}-3-(naphthalen-2-yloxy) propan-2-ol], on SepF, binding was characterised by a dissociation constant (Kd) of 46.8 µM. Consider {FITC}-SIGGDDDDVDVPPFMRR-OH [FITC-FtsZ (FITC-SIGGDDDDVDVPPFMRR-OH, 363-379 amino acids of the full-length FtsZ)], for which the dissociation constant (Kd) in experiment [1] came out at 0.0186 µM. B1: the dissociation constant Kd with His-tagged FtsZ was determined as 5.16 µM.
